Literature values in PMC2865993.

Biological target: actin filament (sides) (Oryctolagus cuniculus) (UniProt P68135)

In the case of “formin (mDia1 FH2) FH2 (from UniProt O08808)”, the Kd is listed as 3000 nM.
